This note sets out measurements from the supplement of paper PMC12764529.

± gives the half width of the 95% confidence interval.

Data set [1] can be described thus: folding stability dG unfold (combined trypsin and chymotrypsin); higher = more stable. An outline of the steps: (§1)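 Only designs with AlphaFold2 dimer inter-PAE above 15 were retained; each was a mini-protein under 80 residues with no cysteine, in a PA-tagged cDNA display construct. After digestion with trypsin and chymotrypsin and sequencing, K50 was inferred by Bayesian fitting of counts, and unfolding free energy was derived per protease or combined against a sequence-predicted unfolded-state K50 and a shared folded-state K50.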

Data set [2] can be described thus: folding stability dG unfold from chymotrypsin proteolysis; higher = more stable. An outline of the steps:
as §1

Data set [3] in a line: folding stability dG unfold from trypsin proteolysis; higher = more stable. An outline of the steps:
as §1

Regarding “SAGGSAGGSAGGPTVTLTLEVPVEDAEELAKALEDAGKARVTKVERNEDGFLRITVEFEDSAGGSAGGSAGG [r7_589_TrROS_Hall]”, the “folding stability dG unfold” value in data set [1] was found to be 1.06 ± 0.075 kcal/mol; in data set [2] it was 1.28 ± 0.027 kcal/mol; in data set [3], 0.593 ± 0.048 kcal/mol.
The corresponding values for “SAGGSAGGSAGGPVRIVMKPSDIEYLLEKFGVEPLEIEEVEEDYVVVTITPEALKEAGLGSAGGSAGGSAGG [r7_587_TrMRF]” are 1.01 ± 0.18 kcal/mol, 0.737 ± 0.049 kcal/mol and 1.1 ± 0.065 kcal/mol.
The corresponding values for “SAGGSAGGSAGGPYVVKVKLKDGSVVELPVEEDHIPTIEDLVKAGIPPELIESVEIEPESAGGSAGGSAGGS [r10_565_TrMRF]” are 2.91 ± 0.1 kcal/mol, 3.09 ± 0.093 kcal/mol and 2.57 ± 0.12 kcal/mol.
The corresponding values for “SAGGSAGGSAGGRKLAIKIEIEEVKTETRIRPDGKTETRTELRIKIEIRPVPHPDDPELLSAGGSAGGSAGG [r7_523_TrROS_Hall]” are 2.34 ± 0.25 kcal/mol, 1.95 ± 0.056 kcal/mol and 2.99 ± 0.12 kcal/mol.
In the case of “SAGGSAGGSAGGRKRYRFKPGQRLEPRLVFRLKLRLELERDEDGNLSLKLELEIEEVRLLSAGGSAGGSAGG [r7_572_TrROS_Hall]”, the “folding stability dG unfold” value in data set [1] was 4.09 ± 0.29 kcal/mol; in data set [2], 4.41 ± 0.098 kcal/mol; in data set [3], 3.35 ± 0.13 kcal/mol.
The corresponding values for “SAGGSAGGSAGGRLVVFEVKKDELNITGPGEARVVSVEELPGDRVRVVVEVPEGAVPGLASAGGSAGGSAGG [r17_48_TrMRF]” are 0.935 ± 0.12 kcal/mol, 1.27 ± 0.066 kcal/mol and 0.324 ± 0.084 kcal/mol.
Taken in the same sequence, the figures for “SAGGSAGGSAGGSADKNGYVKIPITVFTMERYGNGQPKMETVKVEIYVPPGESIEDLLQSAGGSAGGSAGGS [r4_283_TrROS]” were 0.247 ± 0.22 kcal/mol, 0.166 ± 0.32 kcal/mol and 0.0466 ± 0.19 kcal/mol.
The corresponding values for “SAGGSAGGSAGGSAGVIVSLSPAPPSADTVVELPKGVTVTVTTVNGERVLTTLVPEALLSAGGSAGGSAGGS [r10_355_JUSTAS]” are 0.217 ± 0.048 kcal/mol, 0.00971 ± 0.032 kcal/mol and 0.365 ± 0.013 kcal/mol.
As for “SAGGSAGGSAGGSAKITIEYNPETNTLTVTITLENGEKVEITVPPNATLEEIEELAKKASAGGSAGGSAGGS [r4_205_TrROS_Hall]”, the results for the “folding stability dG unfold” value in data set [1], in data set [2] and in data set [3] were 3.04 ± 0.3 kcal/mol, 2.49 ± 0.11 kcal/mol and 3.41 ± 0.28 kcal/mol, respectively.
The corresponding values for “SAGGSAGGSAGGSAPPKVEIEVTVLVKDEDGRLYVFKAKATFDLETNELTVEVEVYELPSAGGSAGGSAGGS [r4_445_TrROS_Hall]” are 4.66 ± 0.35 kcal/mol, 4.79 ± 0.13 kcal/mol and 3.22 ± 0.39 kcal/mol.
Taken in the same sequence, the figures for “SAGGSAGGSAGGSDDFVLRYRRRVRRKPKEVRLLPNGELVTGWEEEVSTFPVLTHPDDDSAGGSAGGSAGGS [r10_524_TrMRF]” were 0.448 ± 0.044 kcal/mol, 0.5 ± 0.065 kcal/mol and 0.239 ± 0.11 kcal/mol.
The corresponding values for “SAGGSAGGSAGGSDNDGAKPPKIKVEIHPVNMPPGDIVVHNDHYVIAFPNGWFFVIRPKSAGGSAGGSAGGS [r4_394_TrROS]” are 1.32 ± 0.14 kcal/mol, 1.61 ± 0.16 kcal/mol and 0.911 ± 0.064 kcal/mol.
“SAGGSAGGSAGGSDNKAILGDVPIKFYDKNGKPVITAKIGYFPDGRVVIYFPDGSKIEASAGGSAGGSAGGS [r10_972_TrMRF]”: the “folding stability dG unfold” value in data set [1] was 1.25 ± 0.038 kcal/mol; in data set [2], 1.04 ± 0.023 kcal/mol; in data set [3], 1.48 ± 0.04 kcal/mol.
Taken in the same sequence, the figures for “SAGGSAGGSAGGSDNSITLDFFFNNYYIKITFNPWNGNLEIDEVQKVPPPPKPKDPGDKSAGGSAGGSAGGS [r4_21_TrROS]” were 2.94 ± 0.22 kcal/mol, 3.19 ± 0.091 kcal/mol and 2.71 ± 0.13 kcal/mol.
As for “SAGGSAGGSAGGSDTPGNYKKVKITLKRVTLGDNNTPKVETVELEVTVPPNYTLEDVLSSAGGSAGGSAGGS [r4_283_TrMRF]”, the “folding stability dG unfold” value in data set [1] was found to be 1.14 ± 0.16 kcal/mol; in data set [2], 1.1 ± 0.14 kcal/mol; in data set [3], 0.976 ± 0.072 kcal/mol.
Taken in the same sequence, the figures for “SAGGSAGGSAGGSEEEIKKLAAEGGSFTATIPVVTPDGKPVEKTVTVEVKTDPKTGKLVSAGGSAGGSAGGS [r10_346_JUSTAS]” were 0.791 ± 0.083 kcal/mol, 0.906 ± 0.025 kcal/mol and 0.482 ± 0.043 kcal/mol.
Taken in the same sequence, the figures for “SAGGSAGGSAGGSEGAPIRVTLTGTRTETRTRPDGSPVTDSGTDTVEFTLDLYDPEKSGSAGGSAGGSAGGS [r4_450_TrMRF]” were -0.363 ± 0.21 kcal/mol, -0.0249 ± 0.13 kcal/mol and -1.4 ± 0.66 kcal/mol.
For “SAGGSAGGSAGGSEKPPIKLKIKVYDPETNELVSEVEVELEPGQSLEELLKKFDVVEIESAGGSAGGSAGGS [r4_187_TrROS_Hall]”, the “folding stability dG unfold” value was found to be 2.66 ± 0.12 kcal/mol in data set [1], 2.94 ± 0.064 kcal/mol in data set [2] and 1.71 ± 0.1 kcal/mol in data set [3].
Taken in the same sequence, the figures for “SAGGSAGGSAGGSEVEVTTRPDGSIVARVRLPDGGVLTLVAEVGPDGSVVVTEASLSPESAGGSAGGSAGGS [r4_246_TrMRF]” were 1.66 ± 0.052 kcal/mol, 1.94 ± 0.027 kcal/mol and 0.856 ± 0.026 kcal/mol.
Taken in the same sequence, the figures for “SAGGSAGGSAGGSFDIEQERNPENGYHRVTIDFPNGPPVEIWMPPGSTLEQIEDLAKQFSAGGSAGGSAGGS [r4_205_TrROS]” were 0.878 ± 0.12 kcal/mol, 0.658 ± 0.1 kcal/mol and 1.07 ± 0.036 kcal/mol.
Taken in the same sequence, the figures for “SAGGSAGGSAGGSFEVVSVDETVTVPPGATVTIVVRDENGKLLTFTFEVRLVPPPPEEESAGGSAGGSAGGS [r10_573_TrROS_Hall]” were 1.86 ± 0.18 kcal/mol, 1.95 ± 0.072 kcal/mol and 1.58 ± 0.1 kcal/mol.
As to “SAGGSAGGSAGGSFKIKDIEVNPDALKKGNFIQIRIENGWVIHINPNGEIEVVELPPDASAGGSAGGSAGGS [r4_373_TrROS]”, the entries for the “folding stability dG unfold” value in data set [1], in data set [2] and in data set [3] were 1.25 ± 0.095 kcal/mol, 1.59 ± 0.072 kcal/mol and 0.356 ± 0.083 kcal/mol, respectively.
Taken in the same sequence, the figures for “SAGGSAGGSAGGSGLYLRLFDPGTGNVVAEVRVEIAPDGSLIAEARVADVPPVEDPEKASAGGSAGGSAGGS [r4_178_TrMRF]” were 1.85 ± 0.17 kcal/mol, 2.39 ± 0.072 kcal/mol and 0.712 ± 0.048 kcal/mol.
For “SAGGSAGGSAGGSGMKYKVTVTFPGGEVRSLEVDSVEEALEKLKEENRPIKEVTVEPLESAGGSAGGSAGGS [r4_213_JUSTAS]”, the “folding stability dG unfold” value was determined as 2.44 ± 0.16 kcal/mol in data set [1], 2.54 ± 0.13 kcal/mol in data set [2] and 2.2 ± 0.14 kcal/mol in data set [3].
Taken in the same sequence, the figures for “SAGGSAGGSAGGSGMTSTTYRLPEGNVVLVETFDPATGTVTLEIRGPPSVERTLTLPVASAGGSAGGSAGGS [r4_443_JUSTAS]” were 3.21 ± 0.24 kcal/mol, 3.64 ± 0.088 kcal/mol and 2.63 ± 0.29 kcal/mol.
The corresponding values for “SAGGSAGGSAGGSGMTTTLLEQREFTLPNGEPVRVTVARFPGGEIVTETEDGVVTTDPLSAGGSAGGSAGGS [r4_111_JUSTAS]” are 0.159 ± 0.08 kcal/mol, 0.281 ± 0.08 kcal/mol and -0.134 ± 0.064 kcal/mol.
For the sequence “SAGGSAGGSAGGSGMTYRTVEIEVRLPEVPGKTVKITIVVPEGATEEEIKALAEELARKSAGGSAGGSAGGS [r4_442_TrROS_Hall]”, the entries for the “folding stability dG unfold” value in data set [1], in data set [2] and in data set [3] were 2.94 ± 0.12 kcal/mol, 2.88 ± 0.039 kcal/mol and 2.87 ± 0.14 kcal/mol, respectively.
The corresponding values for “SAGGSAGGSAGGSGNPVVRVFEFDDYIAVVTFNPGDGSVEVLSVGKVPPAAIPGSPELSSAGGSAGGSAGGS [r4_21_TrMRF]” are 1.17 ± 0.036 kcal/mol, 1.16 ± 0.033 kcal/mol and 1.08 ± 0.024 kcal/mol.
Regarding “SAGGSAGGSAGGSGPPSLPGVLVEIPEPLPGPEGTEFSDPKGYKYTYDPSNGKVLVERASAGGSAGGSAGGS [r4_78_JUSTAS]”, the “folding stability dG unfold” value in data set [1] was -0.242 ± 0.19 kcal/mol; in data set [2], -0.0458 ± 0.16 kcal/mol; in data set [3], -0.753 ± 0.17 kcal/mol.
The corresponding values for “SAGGSAGGSAGGSGPSVTVSTTTLPPLPVTVETVTVGDTTVLVVFTPEGGSAVVPSGALSAGGSAGGSAGGS [r4_256_JUSTAS]” are 1.4 ± 0.087 kcal/mol, 0.858 ± 0.02 kcal/mol and 1.96 ± 0.091 kcal/mol.
The corresponding values for “SAGGSAGGSAGGSGPSVVLVSLPDGSYIAFPSGADVNIEIPSSSSGARIVAVIPLSELSSAGGSAGGSAGGS [r4_122_TrMRF]” are 0.518 ± 0.11 kcal/mol, 0.714 ± 0.024 kcal/mol and 0.111 ± 0.059 kcal/mol.
The corresponding values for “SAGGSAGGSAGGSGSMSVSGGPSVIVVTLPGGEKVVLPLDELDELYKLPYVSATTVSLPSAGGSAGGSAGGS [r4_348_JUSTAS]” are 1.13 ± 0.14 kcal/mol, 0.24 ± 0.18 kcal/mol and 1.45 ± 0.065 kcal/mol.
For “SAGGSAGGSAGGSGSVRIKVYNPKTGEVLELEVPEELVPAAVEAAKALGFEKVEVSPGKSAGGSAGGSAGGS [r4_102_TrMRF]”, the “folding stability dG unfold” value in data set [1] was 2.49 ± 0.13 kcal/mol; in data set [2], 2.91 ± 0.077 kcal/mol; in data set [3], 1.59 ± 0.065 kcal/mol.
Taken in the same sequence, the figures for “SAGGSAGGSAGGSGVLNIDEVWEDPESDLYTVVTTGEDEGTRVFVFDKNGKLLAEADLPSAGGSAGGSAGGS [r4_259_TrMRF]” were 0.443 ± 0.1 kcal/mol, 0.405 ± 0.12 kcal/mol and 0.274 ± 0.034 kcal/mol.
Taken in the same sequence, the figures for “SAGGSAGGSAGGSIEINIMFELPNGLIFRISTTIEPNPDGNLKLDIDIEVIPIKPGQPISAGGSAGGSAGGS [r10_241_TrROS]” were 3.96 ± 0.23 kcal/mol, 4.19 ± 0.13 kcal/mol and 3.11 ± 0.14 kcal/mol.
Taken in the same sequence, the figures for “SAGGSAGGSAGGSIEPITIILPDKIIRIYRFEDGTIVEIIDPETGKPTFISLEDAKKLIGSAGGSAGGSAGG [r7_372_TrMRF]” were 2.61 ± 0.16 kcal/mol, 2.81 ± 0.043 kcal/mol and 2.33 ± 0.14 kcal/mol.
